Experiment: soluble on expression in E. coli; label from the status in PepcDB or PDB records

Row | Sequence | soluble on expression in E. coli
1 | MDVQDIIGIALNLATAGSLAAKVLPGCGGKKKGKSVEGESTSSSKGNGAKTPEGKEGSEARTPSAAGSAAPTAPAEGAAPAAGAPAAVAPKPPMAATHDPNYQTLAGLDNNVFGKKDGAAPAAGGGGPAAPADQNAKAATHDPNYQTLAGLNNNVFDKKDGVGAPAAAPVAAGGDKKPIQPNDKNKKAATMDPNYQTLAAVGGDVFGADKKAGGGGGDKKPIQPNNKGQKAATMDPNYQTLAAVGGDVFGADKKKK | soluble
2 | SERTQSSNMETRLDAMKELAKLSADVTFATEFINMDGIIVLTRLVESGTKLLSHYSEMLAFTLTAFLELMDHGIVSWDMVSITFIKQIAGYVSQPMVDVSILQRSLAILESMVLNSQSLYQKIAEEITVGQLISHLQVSNQEIQTYAIALINALFLKAPEDKRQDMANAFAQKHLRSIILNHVIRGNRPIKTEMAHQLYVLQVLTFNLLEERMMTKMDPNDQAQRDIIFELRRIAFDAESDPSNAPGSGTEKRKAMYTKDYKMLGFTNHINPAMDFTQTPPGMLALDNMLYLAKVHQDTYIRIVLENSSREDKHECPFGRSAIELTKMLCEILQVGELPNEGRNDYHPMFFTHDRAFEELFGICIQLLNKTWKEMRATAEDFNKVMQVVREQITRALPSKPNSLDQFKSKLRSLSYSEILRLRQSERMSQDDFQSPPIVELREKIQPEILELIKQQRLNRLCEGSSFRKIGNRRRQERFWYCRLALNHKVLHYGDLDDNPQGEVTFESLQEKIPVADIKAIVTGKDCPHMKEKSALKQNKEVLELAFSILYDPDETLNFIAPNKYEYCIWIDGLSALLGKDMSSELTKSDLDTLLSMEMKLRLLDLENIQIPEAPPPIPKEPSSYDFVYHYG | not soluble
3 | MDHRAQAREVFVRAQLEAVQKAITKNEVPLKPKHARTIIVGTHKEKSSGIFWHTVGRIQLEKHPVLTWKFCHLVHKLLRDGHRKVPEETYRYVNRFTQLSQFWKHLNTSGYGPCIESYCKLLHDRVTFHNKYPVVPGKLDLNDSQLKTLEGDLDNMFEMTIDMLDQMDALLVLQDRVYEMMNSLRWNSLIPQGQCMLSPLIIAILDTSKFYDYLVKMIFKLHSQVPPDALEGHRSRFRTIFERTKKFYEESSNLQYFKYLVSIPTLPSHAPNFLQQSDLESYRTPHAYLHSEGSEDGTSLNGHDGELLNLAEAEPQQASPSSQPDPREEQIVMLSRAVEDEKFAKERLIQEARSRIEQYENRLLQMQGEFDHAKREADENREEAQRLKNELALRDASRTQTDDARVKEAELKATAAEERFNKMKGVYEKFRSEHVLALTKLGDIQKQLEASEKSKFDKDEEITALNRKVEEAQREAGRALTKAEGDAGAVDEMRTQLVKADIEVEELKRTIDHLRESHANQLVQSSAEETNKIRLAELEVAKESGVGITQMFDHCEDALQNATSITYPPHLAQSAMNNLVNILSNERLDEPLATKDNVFAGHLLSTTLSAAASAAYTASIESYEGVNDQCKKVLAAAKVAFSDDSALSRADKMKLLRQDIQTLNSLMISLPLQTDIDKDVVGNELEQEMRRMDDAIRRAVQEIEAIQRRARESSDGIRLEVNESILANCQALMSVIMQLVIASRELQTEIVAAGKAGGSPAEFYKRNHQWTEGLLSAAKAVGVAARVLVESADGVVTGKGKFEHLIVAAQEIAASTAQLFVSSRVKADKDSSKLDALSVAAKAVNQNTAQVVAAVKNGQTTLNDEGSLDFSYLSLHAAKKEEMESQVKMLELEQSLNQERAKLAALRKQHYHMAQLVANKEGEEAQE | not soluble
4 | GPGSMLLERQQLVQALQLSYHCSAACATSTVNSYYPDEEKCRATVQGKMTAPFVLAVGMVPKQREYVDSLRDDLAVAFQHFPYLNGTAKPPDKEEQKGCAKAVASGERGRNGRASSPASIDWAGVRARLLSPKKVPLWYMHTELVFPGDTHDVRIYENAYQSLIVKEGFSYVIGCYASGDGVVPALDYVNARLCGESVQSLAQRIGFDDDVVEALEGLEAEVPTRVYTRVNAFGNNPATSRSSRQDKGHAQQVLKEAGLAYVRSYVTTRADEAVAKVEDGTLLLPVVVKPNSGAGSEFVTLCYTVDDIRVAFSMVEGVRTSQGTDAAQLVVEEYIEGPEYVVNTVSYQGVHVVTDVWESWKYPEPVVTTGLTRSAEEALRAAGIKRQKQRKISILYDRQTLITNLADLPATHSARRIVEYTLKCLDALGLENGCGHSEVRLDTRKAARELRRHEQRRPKTNSPLGKVKDEHLDEGEPILIELNSRMQGDIPRSTDVIGYDQYSLLVYISEAVNVFGAATAASTALPFRVDSSRPQRVGEIPWPPVPRLYRARPSTGLPLATTVLFLATEEECILNGVALRTLTELGTFQRFTRTIFKPNQPGFVTPLRHTVDLFSSPTSCVMQGPAAAVKADCAAIRSMESAALCSAAKAALFKLTSTIHETERLRENARIIDGRLHAMTEAYRRASAQAGSATDEVADDGREKDEQGTENDCCSSQHDLEALRRSISSLQSELTWVTNNLAADDRQVQLLRTEFAKALASQKPAPLYINYQDFSMMKAAGVGNELAVL | not soluble
5 | MCGIIGFMSRTGRLISGDRIATALNCLKERGNGEGSGYVGYGIYPDYKDDYAIHVFLDATKDYDRIRHEVEEVLVKYGYILKDEEIPTEEGIIKQEQVSWRFFYRFDEKYKTVEEDLMVDIVMDINAKIDGAFVFSSGKNMGVFKAAAWPLEVAEYFKIDQYKGFQWLSHARYPTNTKGWWGGAHPFNLLGWSVVHNGEITSYGANKRYVESFGYKCKLLTDTEVVAYLFDLLIRKHKIPVEYAMSALAPRFWDEIEIMSEEDKKIHEAIRMTYGGATMNGPFGIVVGTQEGMVFMNGEVEEGNTMVGLTDRIKLRPLVAAEKDDLLFVSSEESAIRKICPELDRVWMPDAGRMVIAKLEKKI | not soluble
6 | MSLQILTRKMPGQFKVGCMDLMIEEAAGSGLFMRLFFPTDSEITGPSSLPVWIPRPEYAYGVGEYLGHSPHQMDLISSLVIGDKRVDCIDNAQLSTKSDKWPVLVFSHGLGGSRTFYSTYCTSLASHGYVVAAVEHRDSSACWTYKLVEKNGTLVEKPMKIKLVDRNDKDQFKIRNEQVGKRAEECAKAVKILEQLDSGNVKDKVIIGNNANLEFFKNKLLTTTASIIGHSFGGATSIASSSSDFQKAIVLDGWMYPLDQNQQEQAKQPIMFLNVGDWQWNENLEVMRKILPNNEGNILLTLSGAVHQSFTDFPFVFPNWLAKQFGVHGPTEPYLCMQSAIELTLSFLKDGKEGHHHHHH | not soluble
7 | AEPESCGTVRFSDVGWTDITATTATATTILEALGYETDVKVLSVPVTYTSLKNKDIDVFLGNWMPTMEADIAPYREDKSVETVRENLAGAKYTLATNAKGAELGIKDFKDIAAHKDELDGKIYGIEPGNDGNRLIIDMVEKGTFDLKGFEVVESSEQGMLAQVARAEKSGDPIVFLGWEPHPMNANFKLTYLSGGDDVFGPNYGGATVHTNVRAGYTTECPNVDKLLQNLSFSLQMENEIMGKILNDGEDPEKAAAAWLKDNPQSIEPWLSGVATKDGGDGLAAVKAALGLEHHHHHH | soluble
8 | MYNNSAPYLNHSSLNTVRKKVVTVRRVLPSLPPPPPPPPSLYPPCSVFKVPYIPQRVYRSINSTLYNNQSFASSSRGFYRKQKPIPKSHPKHQEHHHHAKASVSTPVHSSSTSRNSSVAPTPQRTVSTSSSSSSAATSARVSEDESDSDSTPGEVQRRKTSVLSNDKRRRRASFSSTSIQSSPERQRDVSSSSRTSSSSSTSSMKQEETADEKSRKRKLIMSSDESSTTGSTATSVVSSRQSSLEPQQEKTDGEPPKKKSQTDFISERVSKIEGEERPLPEPVETSGPIIGDSSYLPYKIVHWEKAGIIEMNLPANSIRAHEYHPFTTEHCYFGIDDPRQPKIQIFDHSPCKSEPGSEPLKITPAPWGPIDNVAETGPLIYMDVVTAPKTVQKKQKPRKQVFEKDPYEYYEPPPTKRPAPPPRFKKTFKPRSEEEKKKIIGDCEDLPDLEDQWYLRAALNEMQSEVKSADELPWKKMLTFKEMLRSEDPLLRLNPIRSKKGLPDAFYEDEELDGVIPVAAGCSRARPYEKMTMKQKRSLVRRPDNESHPTAIFSERDETAIRHQHLASKDMRLLQRRLLTSLGDANNDFFKINQLKFRKKMIKFARSRIHGWGLYAMESIAPDEMIVEYIGQTIRSLVAEEREKAYERRGIGSSYLFRIDLHHVIDATKRGNFARFINHSCQPNCYAKVLTIEGEKRIVIYSRTIIKKGEEITYDYKFPIEDDKIDCLCGAKTCRGYLN | soluble
9 | MGSDKIHHHHHHMAEWAGGQGTQEQAVDKGPVTTDRPRPDRISPMNTARRLLRYLGHQRLPHVVVQIGCEILGAQRGALYLLDQNQEVTLIAQYPDDKDVQVPDDLDEARLSWHTLHDFLPQLVDCAHDHEARFHYCSGGDCWLTLSIPLQWEGQNIAVVQLSYKPDVTIDQTSMLGLVYEYAELAALTLVQHWRCIHPAHSSGTQAVPPSSLTNDYSFSSGVSLALAVSEAERARIARDLHDGARSAILGVQLHLEALRLACMQGDSLAIQDHLARGRAALDAIEQELSHIVRDLYPPQVGEADFPTVLVNLSERWSAATRIPVEYAFAPNIPVLETAQVIALYRIVQEALANCNRHAQASRVTISLACADDTLLLTVADNGRGGANLRGGGIGLLSMAQRAHAIGASFHIDSPPDQGTRIEVKLPLRRREPDVHVCSGDCHEGADE | not soluble
10 | MQEAVNSALPGDVIIVKPGSYYDHVTVTTNNLVIRSESGNPEDTVIEGYNPTADVFTIEADNITLEGFTIMGAGANCSGLCLHGCTNCLIDSNTFFNDFRGIYLKSSLNNDILNNIVIKGGRGISIEESNHNSVSKNKVSECGYGINLLNSKDNRISKNTVAGNKDYGILVQSSDSNTFSRNNASENGRGIHIGNSDGNTLSNNKISLNEVHGLFVCPKSDKNLVYNNYFSNTLNVEANNGTSNVYHKSRTKGENIVGGPYIGGNYWATPEGSGFSETAADNNGDGIADEKYLFETSDYFDPLPLIAYKPPEPVLPTANLSINTPEDYAPLSVQFTDLSENATSRTWDFENDGVIDSPDETPVYTYPSPGTYTVNLTAACENGTDTKLITINVGENNVAEIQPESAPGEESMSTTGSQAEQNSEQEGISSIPGFEMLYGIFCLLAIFLYKESTKLEHHHHHH | not soluble
11 | MGRFLLVDKKAPNYENLIDKEMNEIYERVKKIDPNQNEFLQAFHEILYSLKPLFMEDPKYLPIIEMLSEPERLVQFRVCWIDDNGIQRKNRGFRVQFNSTLGIYKGGLRFHPSVNLSIVKFLGFEQIFKNSLTGLSMGGAKGGSDFDPKGKSDNEIMKFCQSFMNELYRHIGPRTDVPAGDIGVGGREIGYLFGQYKKIANSFNGTLTGKNEKWGGSILRTEATGYGLVYFVLEVLKSLNIQMDKQTAIVSGSGNVALYCVQKLLQLNVKVLTMSDSNGYIYEPNGFTNDDLNFIIELKEVRKGRIEEYLKHSSTAKYFPNEKPWNVKCTLAFPCATQNEIDLDDAKLLHKNGCILVGEGANMPSTIEAINYLKENKIILCPSKAANAGGVAISGLEMSQNFQFAKWTKETVDEKLKEIMKNIFISSSESALKYANNKYDLQVGANISGFLKVADSYIQQGL | soluble
12 | MTEISPKILETSSEPPPKKKRANFTLEFKNEVIRFAEQTNNCQAQKKYGVARACIQRWRHLKHELAFESEGKQGAKRLGGAGRPLKNVELDEKVEDWIASKNGKISGKDIKEYAKKINGNADFKASNGWLQRFMIRHGLIKARSSSPKTPSTSDGTTDKTLEESLFELINSDEWKNISEGNVSGFLEDFNAENGETSLKVEGNNSTTTESEVKQKPNESSKLPEINIFQQLEMLIKDSNGKEDSVEETETSVNRSPKSY | not soluble
13 | MAHHHHHHMTVNNSNNNNNGERLGSGTARLFVGQLNFDATEHDLRQIFSFYGHVIHTNVLRDADGKSTGSGFVTFRVTDEADFAIMSMHDRYNMGREKPLQVSYCRRSERISPFGYEHAMKLREKNTTNPPPPQPTSS | soluble
14 | GTEVEIPVVHDPKGEAVLPSVFEDGTRQGWDWAGESGVKTALTIEEANGSNALSWEFGYPEVKPSDNWATAPRLDFWKSDLVRGENDYVTFDFYLDPVRATEGAMNINLVFQPPTNGYWVQAPKTYTINFDELEEANQVNGLYHYEVKINVRDITNIQDDTLLRNMMIIFADVESDFAGRVFVDNVRFEGA | soluble

Source: the DeepSol protein solubility set
